From the supplement of paper PMC10724198
± gives the standard deviation of the averaged measurements.

Assays:
Saccharomyces cerevisiae [1] = test: protein stability index of tFT-peptide fusion (C-terminal peptide) (PSI (0-1 scale)); higher = more stable (slower turnover); conditions: genetic background: wild type; temperature: 30 C
Saccharomyces cerevisiae [2] = test: as above
Description: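 MPS profiling in S. cerevisiae of the tFT-X12 degron library: putative degron peptides plus stable controls, 12 aa, fused to the C-terminus of a sfGFP-mCherry timer. Cells are FACS-sorted into 8 mCherry/sfGFP bins and deep-sequenced. PSI runs from 0 (unstable) to 1 (stable). Backgrounds are wild type, das1Δ and doa10Δ at 30 °C, and wild type, das1Δ, cdc34-1 and cdc53-1 at 37 °C; 2-3 technical replicates each.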

[3] = genetic background: cdc34-1, temperature: 37 C
[4] = genetic background: cdc53-1, temperature: 37 C
[5] = genetic background: das1 deletion, temperature: 30 C
[6] = genetic background: das1 deletion, temperature: 37 C
[7] = genetic background: doa10 deletion, temperature: 30 C
[8] = genetic background: wild type, temperature: 30 C
[9] = genetic background: wild type, temperature: 37 C
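Further: PSI is a weighted mean of sequencing reads over stability bins, variants kept only with over 10 reads, mCherry proximal and sfGFP distal, peptide attached via GGGS linker.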

Row | Sequence | protein stability index (Saccharomyces cerevisiae [1]) | protein stability index (Saccharomyces cerevisiae [2]; [3]) | protein stability index (Saccharomyces cerevisiae [2]; [4]) | protein stability index (Saccharomyces cerevisiae [2]; [5]) | protein stability index (Saccharomyces cerevisiae [2]; [6]) | protein stability index (Saccharomyces cerevisiae [2]; [7]) | protein stability index (Saccharomyces cerevisiae [2]; [8]) | protein stability index (Saccharomyces cerevisiae [2]; [9])
1 | LFILRPVVGVLN | 0.495 ± 0.053 | 0.531 ± 0.034 | 0.53 ± 0.021 | 0.402 ± 0.035 | 0.555 ± 0.0077 | 0.368 ± 0.012 | 0.408 ± 0.016 | 0.528 ± 0.008
2 | PSFVEVAFAVCC | 0.451 ± 0.058 | 0.569 ± 0.037 | 0.555 ± 0.039 | 0.347 ± 0.045 | 0.5575 ± 0.0034 | 0.339 ± 0.03 | 0.366 ± 0.0077 | 0.541 ± 0.019
3 | VSWDMLYFWFIQ | 0.416 ± 0.002 | 0.664 ± 0.089 | 0.693 ± 0.041 | 0.603 ± 0.059 | 0.764 ± 0.033 | 0.307 ± 0.017 | 0.304 ± 0.028 | 0.554 ± 0.016
4 | RFQKTRIFRCLC | 0.18 ± 0.028 | 0.455 ± 0.002 | 0.66 ± 0.015 | 0.57 ± 0.022 | 0.6796 ± 0.0058 | 0.0979 ± 0.0052 | 0.117 ± 0.015 | 0.137 ± 0.0058
5 | HMSAISLIGALA | 0.519 ± 0.029 | 0.595 ± 0.051 | 0.575 ± 0.04 | 0.436 ± 0.06 | 0.595 ± 0.011 | 0.392 ± 0.0086 | 0.434 ± 0.02 | 0.5673 ± 0.0013
6 | CFGVVVLGLSLD | 0.491 ± 0.024 | 0.442 ± 0.0052 | 0.503 ± 0.031 | 0.352 ± 0.039 | 0.564 ± 0.015 | 0.319 ± 0.0043 | 0.354 ± 0.027 | 0.531 ± 0.021
7 | AVWVAVEVEAGR | 0.436 ± 0.026 | 0.468 ± 0.045 | 0.498 ± 0.025 | 0.331 ± 0.026 | 0.5447 ± 0.0044 | 0.3 ± 0.009 | 0.333 ± 0.023 | 0.53 ± 0.018
8 | LVFSVIPVLFVL | 0.419 ± 0.087 | 0.454 ± 0.011 | 0.474 ± 0.025 | 0.355 ± 0.015 | 0.528 ± 0.017 | 0.328 ± 0.015 | 0.318 ± 0.022 | 0.461 ± 0.027
9 | VLFVVLVASGLG | 0.299 ± 0.023 | 0.215 ± 0.015 | 0.312 ± 0.007 | 0.204 ± 0.032 | 0.4008 ± 0.00043 | 0.163 ± 0.01 | 0.206 ± 0.026 | 0.4012 ± 0.0037
10 | FFLLCFMMCVLL | 0.259 ± 0.053 | 0.291 ± 0.015 | 0.291 ± 0.014 | 0.289 ± 0.043 | 0.374 ± 0.025 | 0.288 ± 0.01 | 0.219 ± 0.032 | 0.348 ± 0.01
11 | FFFFSMLIFCAV | 0.191 ± 0.0034 | 0.06041 ± 0.00022 | 0.106 ± 0.025 | 0.156 ± 0.016 | 0.226 ± 0.013 | 0.129 ± 0.01 | 0.136 ± 0.0094 | 0.192 ± 0.0081
12 | GLVAGVYVGSGL | 0.701 ± 0.02 | 0.7099 ± 0.0059 | 0.759 ± 0.011 | 0.629 ± 0.036 | 0.741 ± 0.0076 | 0.648 ± 0.031 | 0.616 ± 0.013 | 0.721 ± 0.01
13 | EVSIISECKVAS | 0.258 ± 0.011 | 0.5081 ± 0.0025 | 0.639 ± 0.059 | 0.44 ± 0.019 | 0.585 ± 0.026 | 0.145 ± 0.013 | 0.175 ± 0.014 | 0.281 ± 0.015
14 | WFLWWCVCLFVF | 0.307 ± 0.0073 | 0.312 ± 0.015 | 0.314 ± 0.03 | 0.304 ± 0.023 | 0.403 ± 0.018 | 0.2527 ± 0.00072 | 0.255 ± 0.012 | 0.299 ± 0.0032
15 | NTREGFIILARA | 0.529 ± 0.065 | 0.523 ± 0.014 | 0.537 ± 0.018 | 0.369 ± 0.03 | 0.573 ± 0.022 | 0.296 ± 0.0041 | 0.349 ± 0.066 | 0.5303 ± 0.0025
16 | LLLSLYFCFIFF | 0.329 ± 0.074 | 0.207 ± 0.025 | 0.152 ± 0.004 | 0.245 ± 0.035 | 0.332 ± 0.018 | 0.337 ± 0.0086 | 0.226 ± 0.022 | 0.309 ± 0.033
